Experimental data taken from patent publication US20100221261.

How the values were obtained:
[1] = target: GST-XIAP linker BIR 2 [GST: P08515]
[2] = target: GST-linker BIR 2 BIR3Ring
Sequence of GST-linker BIR 2 BIR3Ring (chain, as listed by the source): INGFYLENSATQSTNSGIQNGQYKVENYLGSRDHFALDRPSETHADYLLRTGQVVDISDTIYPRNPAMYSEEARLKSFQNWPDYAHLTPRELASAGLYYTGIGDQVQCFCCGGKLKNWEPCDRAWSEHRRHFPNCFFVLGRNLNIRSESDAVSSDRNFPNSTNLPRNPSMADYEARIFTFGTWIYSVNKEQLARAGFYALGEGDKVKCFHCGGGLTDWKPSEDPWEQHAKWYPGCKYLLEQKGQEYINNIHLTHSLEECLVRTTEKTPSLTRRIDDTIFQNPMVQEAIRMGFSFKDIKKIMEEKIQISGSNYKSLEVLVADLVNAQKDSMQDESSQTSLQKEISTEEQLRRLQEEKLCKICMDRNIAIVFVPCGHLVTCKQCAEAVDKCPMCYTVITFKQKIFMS

B1: Caspase-3 (protein)
chain: SGISLDNSYKMDYPEMGLCIIINNKNFHKSTGMTSRSGTDVDAANLRETFRNLKYEVRNKNDLTREEIVELMRDVSKEDHSKRSSFVCVLLSHGEEGIIFGTNGPVDLKKITNFFRGDRCRSLTGKPKLFIIQACRGTELDCGIETDSGVDDDMACHKIPVEADFLYAYSTAPGYYSWRNSKDGSWFIQSLCAMLKQYADKLEFMHILTRVNRKVATEFESFSFDATFHAKKQIPCIVSMLTKELYFYH
Caspase 3 activity (hydrolysis of DEVD-AMC, released AMC fluorescence) [1]: caspase-3 was inhibited by GST fusion proteins of XIAP linker-Bir2, XIAP Linker Bir2-Bir3-RING or full-length XIAP | Caspase 3 activity (hydrolysis of DEVD-AMC, released AMC fluorescence) [2]: caspase-3 was inhibited by GST fusion proteins of XIAP linker-Bir2, XIAP Linker Bir2-Bir3-RING or full-length XIAP
